One assay concerns the target T1, 生物素标记人CSF1R Fc蛋白 (human, UniProt P07333 20-512, biotin-labelled (site not stated)).
T1 construct: range 20-512; also called CSF1R Fc biotin; 人CSF1R抗原; not shown: human IgG1 Fc tag at the C-terminus
Briefly: binding assays of Example 2 (capture ELISA with biotin-labelled human CSF1R Fc; flow cytometry on 293F cells expressing human CSF1R), summarised in Table 2. On the technique in general: ELISA stands for enzyme-linked immunosorbent assay.

For a further assay, the target named is T2, 重组人CSF1R带his标签的蛋白 (human, UniProt P07333 20-512).
T2 construct: Bought protein used as coating antigen for hybridoma screening; also called 人CSF1R-his; CSF1R-his蛋白抗原; not shown: his tag
T2 sequence (P07333 20-512 limits assumed): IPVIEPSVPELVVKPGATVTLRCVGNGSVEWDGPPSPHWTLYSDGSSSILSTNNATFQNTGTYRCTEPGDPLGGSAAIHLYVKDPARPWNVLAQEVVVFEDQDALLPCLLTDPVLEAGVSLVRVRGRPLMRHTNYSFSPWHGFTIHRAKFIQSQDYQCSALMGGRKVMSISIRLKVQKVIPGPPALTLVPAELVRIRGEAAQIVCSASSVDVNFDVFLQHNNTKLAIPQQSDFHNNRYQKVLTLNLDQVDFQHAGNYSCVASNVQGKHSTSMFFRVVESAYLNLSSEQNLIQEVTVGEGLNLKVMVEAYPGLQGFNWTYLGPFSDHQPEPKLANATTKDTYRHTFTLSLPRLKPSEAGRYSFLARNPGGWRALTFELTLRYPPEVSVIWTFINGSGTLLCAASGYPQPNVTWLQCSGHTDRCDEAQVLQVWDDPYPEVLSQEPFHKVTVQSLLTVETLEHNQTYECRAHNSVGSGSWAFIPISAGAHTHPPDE
Description: ELISA screen of hybridoma supernatant on coated human CSF1R-his.

T1 sequence (P07333 20-512 limits assumed): as above

B1: 1G6 抗人CSF-1R小鼠单克隆抗体 (antibody, V domains shown)
VH: QIQLVQSGPELKKPGETVKISCKASGYTFIIYGMNWVKQTPGRGLKWMGWINTYTGEPTYADDFKGRFAFSLETSASTASLQINNLKNEDTATYFCAREVYDGYPSHYAMDYWGQGTSVTVSS
VL: DIVMTQAAPSVPVTPGESVSISCRSSKSLLHSNGNTYLYWFLQRPGQSPQLLIYWMSNLASGVPDRFSGSGSGTAFTLRISRVEAEDVGVYYCLQHLEYPYTFGGGTKLEIK
notes: also called 1G6抗体; 本发明的抗人CSF-1R单克隆抗体
In the case of B1, the binding result with 生物素标记人CSF1R Fc蛋白 and with 重组人CSF1R带his标签的蛋白 was “binds” in each case.

Values taken from patent CN108948199A (BOAOXIN BIOTECHNOLOGY NANJING CO LTD, dated 2018).
